The values that follow come from patent US20200283847, “TEST KIT FOR DETECTING CONCENTRATION OF CARDIOVASCULAR DISEASE-RELATED BIOMARKER AND CONCENTRATION DETECTION METHOD FOR DETECTING CONCENTRATION OF CARDIOVASCULAR DISEASE-RELATED BIOMARKER” (National Tsing Hua University, published 2020).

Data set [1] addresses T1, fibrinogen (UniProt P02671-2;P02675;P02679 P02671-2:20-644,P02675:31-491,P02679:27-453). Kind of data set: SPR. Conditions: chain copies: 2. As for the experimental part: (§1) Firstly, the binding affinities of the first aptamer, the second aptamer, and the third aptamer contained in the test kit for detecting the concentration of the cardiovascular disease-related biomarker of the present disclosure are tested. The surface plasmon resonance (SPR) method is used in the binding affinity test to measure the signal changes and calculate the dissociation constant (Kd) of the first aptamer, the second aptamer and the third aptamer against their respective target proteins. Alternatively, a primary antibody against the target protein and secondary antibody conjugated with an enzyme is used in test. The binding affinities of the first aptamer, the second aptamer, and the third aptamer against their respective target proteins are measured by detecting the intensities of luminescence.

The target of data set [2] is T2, hcTnI (human cardiac troponin I) (Homo sapiens, UniProt P19429 P19429:2-210). Put plainly: pulldown; protein-coated magnetic beads, qPCR. From the text: (§2) In the specificity test, the single-stranded DNA of the first aptamer, the second aptamer and the third aptamer are synthesized first. The magnetic beads coated with the target protein or the non-target protein are mixed with the first aptamer, the second aptamer or the third aptamer, and then the magnetic beads are captured by the magnet and the aptamers which are not bound to the magnetic beads are washed away. Then, the magnetic beads are heated to denature the proteins on the magnetic beads for releasing the bound aptamers into the supernatant. Quantitative PCR is performed using the supernatant to analyze the number of residual aptamers, and compared with each other to test the specificity of the first aptamer, the second aptamer, and the third aptamer. In theory, a specific aptamer should only bind to its corresponding target protein, but not to a non-corresponding protein. The aptamers tested in the example are the first aptamer N20a, the second aptamer Tn2, and the third aptamer F03s.
T2 sequence (P19429 2-210, one chain of several): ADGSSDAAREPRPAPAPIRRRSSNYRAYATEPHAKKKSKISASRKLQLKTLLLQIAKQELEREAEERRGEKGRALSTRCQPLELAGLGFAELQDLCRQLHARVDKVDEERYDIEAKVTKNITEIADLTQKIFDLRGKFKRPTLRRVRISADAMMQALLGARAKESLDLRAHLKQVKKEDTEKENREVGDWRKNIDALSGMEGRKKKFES
(§3) Please refer to FIGS. 5A, 5B, 5C and 5D, which show specificity analysis results of a test kit for detecting the concentration of the cardiovascular disease-related biomarker according to one embodiment of the present disclosure. […] TT represents the hcTnI with the second aptamer Tn2, NT represents the NT-proBNP protein with the second aptamer Tn2, FT represents the fibrinogen protein with the second aptamer Tn2, and BT represents the BSA protein with the second aptamer Tn2. FF represents the fibrinogen protein with the third aptamer F03s, NF represents the NT-proBNP with the third aptamer F03s, TF represents the hcTnI with the third aptamer F03s, and BF represents the BSA protein with the third aptamer F03s.
A general note: Quantitative PCR measures a nucleic acid by following its amplification.

The target of data set [3] is T3, BSA (bovine serum albumin) (Bos taurus, UniProt P02769 P02769:25-607). Put plainly: pulldown; protein-coated magnetic beads, qPCR.
T3 sequence (P02769 25-607, one chain of several): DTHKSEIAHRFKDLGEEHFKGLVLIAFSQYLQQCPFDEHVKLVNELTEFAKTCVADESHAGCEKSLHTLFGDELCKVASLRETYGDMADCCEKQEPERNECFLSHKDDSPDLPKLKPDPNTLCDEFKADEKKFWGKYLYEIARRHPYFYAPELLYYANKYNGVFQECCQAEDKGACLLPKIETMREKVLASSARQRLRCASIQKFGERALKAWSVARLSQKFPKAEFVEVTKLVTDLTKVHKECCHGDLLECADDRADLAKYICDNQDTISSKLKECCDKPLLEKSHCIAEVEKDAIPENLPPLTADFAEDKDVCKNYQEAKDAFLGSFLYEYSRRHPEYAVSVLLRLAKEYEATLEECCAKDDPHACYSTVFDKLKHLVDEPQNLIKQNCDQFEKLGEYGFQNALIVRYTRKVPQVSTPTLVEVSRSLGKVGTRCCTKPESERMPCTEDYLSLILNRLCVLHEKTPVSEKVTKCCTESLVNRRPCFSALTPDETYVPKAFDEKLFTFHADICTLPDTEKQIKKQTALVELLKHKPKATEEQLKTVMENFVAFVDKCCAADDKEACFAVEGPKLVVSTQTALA
From the text: as §2, §3

Data set [4] has as its target T4, NT-proBNP (N-terminal pro-brain natriuretic peptide) (UniProt P16860 P16860:27-102). Kind of data set: pulldown; protein-coated magnetic beads, qPCR.
From the text: as §2, §3

Data set [5] concerns the target T2, hcTnI (human cardiac troponin I). Kind of data set: antibody luminescence assay. The protocol: as §1
The curves of binding affinity curve are plotted with luminescence intensity of the first aptamer, the second aptamer or the third aptamer with its target protein. The first aptamer, the second aptamer or the third aptamer is bound to the target protein. And then the aptamer-protein complex is incubated with antibodies against target proteins and further with secondary antibodies conjugated with the enzyme, which could produce luminescence when providing substrates. The signal of luminescence of the first aptamer, the second aptamer or the third aptamer is detected. […]

Data set [6] shares this target. Kind of data set: SPR. As for the experimental part: as §1
Data set [7] has as its target T1, fibrinogen. Put plainly: pulldown; protein-coated magnetic beads, qPCR; also no dose-dependent signal in FIG. 7B. As to conditions: chain copies: 2. The protocol: as §2, with “The” for “In the specificity test, the single-stranded DNA of the first aptamer, the second aptamer and the third aptamer are synthesized first. The”
as §3

The target of data set [8] is T3, BSA (bovine serum albumin). The data set is described as above. The protocol:
as §2, with “The” for “In the specificity test, the single-stranded DNA of the first aptamer, the second aptamer and the third aptamer are synthesized first. The”
as §3

Data set [9] concerns the target T4, NT-proBNP (N-terminal pro-brain …). Described as above. As for the experimental part: as §2, with “The” for “In the specificity test, the single-stranded DNA of the first aptamer, the second aptamer and the third aptamer are synthesized first. The”
as §3

Data set [10] shares this target. Put plainly: SPR. As for the experimental part:
as §1
On the technique in general: In SPR one partner is held on a chip, and binding of the other changes the refractive index at the surface.

The target of data set [11] is T1, fibrinogen. Kind of data set: pulldown; protein-coated magnetic beads, qPCR. As to conditions: chain copies: 2.
From the text: as §2, §3

T1 sequence (P02671 other isoform, or with tags, fused parts or gaps, chain 1 of 3): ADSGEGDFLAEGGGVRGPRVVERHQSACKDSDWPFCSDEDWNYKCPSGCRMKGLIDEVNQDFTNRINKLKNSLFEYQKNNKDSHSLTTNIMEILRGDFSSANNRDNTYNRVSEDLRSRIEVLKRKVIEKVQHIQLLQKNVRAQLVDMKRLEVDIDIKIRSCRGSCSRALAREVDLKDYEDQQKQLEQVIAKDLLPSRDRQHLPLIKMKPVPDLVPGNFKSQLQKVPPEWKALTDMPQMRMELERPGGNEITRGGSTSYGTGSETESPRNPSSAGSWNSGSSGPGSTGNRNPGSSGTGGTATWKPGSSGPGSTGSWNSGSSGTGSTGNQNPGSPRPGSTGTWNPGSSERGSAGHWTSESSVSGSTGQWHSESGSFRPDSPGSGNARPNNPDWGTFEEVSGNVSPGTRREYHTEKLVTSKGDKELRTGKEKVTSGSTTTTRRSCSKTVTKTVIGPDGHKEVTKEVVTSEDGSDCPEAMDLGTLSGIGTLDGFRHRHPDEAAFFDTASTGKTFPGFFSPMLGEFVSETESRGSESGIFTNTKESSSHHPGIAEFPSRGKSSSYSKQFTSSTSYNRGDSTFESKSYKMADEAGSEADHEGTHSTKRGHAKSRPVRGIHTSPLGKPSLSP
T1 sequence (P02675 31-491, chain 2 of 3): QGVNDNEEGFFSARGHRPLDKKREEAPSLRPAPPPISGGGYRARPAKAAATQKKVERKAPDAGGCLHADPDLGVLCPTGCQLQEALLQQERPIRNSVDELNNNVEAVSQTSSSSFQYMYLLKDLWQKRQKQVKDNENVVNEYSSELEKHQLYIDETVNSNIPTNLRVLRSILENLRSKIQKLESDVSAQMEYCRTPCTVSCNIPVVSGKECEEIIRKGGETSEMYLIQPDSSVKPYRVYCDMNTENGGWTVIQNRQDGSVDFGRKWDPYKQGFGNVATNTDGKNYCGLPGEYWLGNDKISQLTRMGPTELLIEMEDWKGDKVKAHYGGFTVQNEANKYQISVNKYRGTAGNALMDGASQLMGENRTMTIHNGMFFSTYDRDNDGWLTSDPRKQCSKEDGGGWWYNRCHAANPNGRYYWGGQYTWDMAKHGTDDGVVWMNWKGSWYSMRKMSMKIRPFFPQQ
T1 sequence (P02679 27-453, chain 3 of 3): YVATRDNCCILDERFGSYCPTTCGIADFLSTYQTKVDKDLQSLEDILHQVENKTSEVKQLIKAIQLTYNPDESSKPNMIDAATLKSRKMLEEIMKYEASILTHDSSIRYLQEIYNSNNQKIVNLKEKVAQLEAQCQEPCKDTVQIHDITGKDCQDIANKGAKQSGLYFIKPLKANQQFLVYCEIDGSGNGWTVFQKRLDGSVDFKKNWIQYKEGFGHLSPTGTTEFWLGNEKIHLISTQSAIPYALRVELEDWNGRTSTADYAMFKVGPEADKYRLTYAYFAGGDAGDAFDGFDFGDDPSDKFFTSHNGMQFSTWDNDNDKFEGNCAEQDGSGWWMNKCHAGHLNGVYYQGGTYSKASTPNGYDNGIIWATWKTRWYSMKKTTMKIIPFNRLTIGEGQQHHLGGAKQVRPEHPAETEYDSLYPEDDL
T4 sequence (P16860 27-102, one chain of several): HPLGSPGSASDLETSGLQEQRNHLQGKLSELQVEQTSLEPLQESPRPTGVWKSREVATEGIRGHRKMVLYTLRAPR

B1: F03s (ssDNA)
DNA: GGCAGGAAGACAAACAGCACCGGGTCCGAAACAGGCTTAGGTATGATCACAGCTCATGGTCTGTGGTGCTGT
B1: the Kd (usually a measure of binding affinity in units of concentration) in the data set with fibrinogen [1] is 4.4 nM. In addition, the binding result in data set [2], in data set [3] and in data set [4] was “no binding” each time.

B2: cTni3 (ssDNA)
DNA: GGCAGGAAGACAAACAGGGGTACTTAGCATAGGAGTTTTGTTCTGTCGCACCTCGTTGGTCTGTGGTGCTGT
Molecule B2 returned a Kd in data set [5] of 2.3 nM.

B3: Tn2 (ssDNA)
DNA: GGCAGGAAGACAAACACCCAACCGAGGATGCAACGCTTGTTGTCATACTGTGATGTTGGTCTGTGGTGCTGT
Molecule B3 showed a Kd in data set [6] of 19.8 nM. Besides, the binding result (with fibrinogen [7]; in [8]; in data set [9]) was “no binding” throughout.

B4: N20a (ssDNA)
DNA: GGCAGGAAGACAAACAGGTCGTAGTGGAAACTGTCCACCGTAGACCGGTTATCTAGTGGTCTGTGGTGCTGT
Consider B4, for which the Kd in [10] turned out to be 2.89 nM. In addition, the binding result (in [2]; in the data set with fibrinogen [11]; in [3]) was “no binding” each time.

B5: cTni6 (ssDNA)
DNA: GGCAGGAAGACAAACACGGGGCGGCCGAAACAATGCGTTTCGGACCCAGCAACTCGTGGTCTGTGGTGCTGT
Consider B5, for which binding in data set [5] was characterised by a dissociation constant (Kd) of 49.4 nM. This counts as double-digit nanomolar.
